Measurements taken from patent US20110300138A1 (published 2011).

Tests used:
Test in all cases: cell-based or functional assay
[1] = molecular target: TSHR with Lys183 mutated to Ala expressed in CHO cells (human) (UniProt P16473)
[2] = molecular target: TSHR with Lys58 mutated to Ala expressed in CHO cells (human) (UniProt P16473)
[3] = molecular target: TSHR with Thr104 mutated to Ala (expressed in CHO cells) (human) (UniProt P16473)
[4] = molecular target: TSHR with Tyr185 mutated to Ala (human) (UniProt P16473)
[5] = molecular target: wild type TSHR (human TSH receptor) expressed in CHO cells (human) (UniProt P16473)

TSH (ligand) gave a Cyclic AMP produced (pmol/mL), 0.01 ng/mL TSH, Experiment 1 [1] of 4.95 pmol/mL, a Cyclic AMP produced (pmol/mL), 0.01 ng/mL TSH, Experiment 2 [1] of 3.73 pmol/mL and a Cyclic AMP produced (pmol/mL), 0.03 ng/mL TSH, Experiment 1 [1] of 6.94 pmol/mL. The Cyclic AMP produced (pmol/mL), 0.03 ng/mL TSH, Experiment 2 [1] was 5.37 pmol/mL, the Cyclic AMP produced (pmol/mL), 0.1 ng/mL TSH, Experiment 1 [1] was 13 pmol/mL and the Cyclic AMP produced (pmol/mL), 0.1 ng/mL TSH, Experiment 2 [1] was 10.1 pmol/mL. For the same substance, the Cyclic AMP produced (pmol/mL), 0.3 ng/mL TSH, Experiment 1 [1] was 35 pmol/mL, the Cyclic AMP produced (pmol/mL), 0.3 ng/mL TSH, Experiment 2 [1] was 27.8 pmol/mL and the Cyclic AMP produced (pmol/mL), 1 ng/mL TSH, Experiment 1 [1] was 57.2 pmol/mL. It also gave a Cyclic AMP produced (pmol/mL), 1 ng/mL TSH, Experiment 2 [1] of 55.8 pmol/mL, a Cyclic AMP produced (pmol/mL), 3 ng/mL TSH, Experiment 1 [1] of 69.2 pmol/mL and a Cyclic AMP produced (pmol/mL), 3 ng/mL TSH, Experiment 2 [1] of 72.2 pmol/mL. The Mutated/Wild type (%) of cyclic AMP produced, 0.01 ng/mL TSH, Experiment 1 [1] was 275%, the Mutated/Wild type (%) of cyclic AMP produced, 0.01 ng/mL TSH, Experiment 2 [1] was 287% and the Mutated/Wild type (%) of cyclic AMP produced, 0.03 ng/mL TSH, Experiment 1 [1] was 177%. It also gave a Mutated/Wild type (%) of cyclic AMP produced, 0.03 ng/mL TSH, Experiment 2 [1] of 179%, a Mutated/Wild type (%) of cyclic AMP produced, 0.1 ng/mL TSH, Experiment 1 [1] of 146% and a Mutated/Wild type (%) of cyclic AMP produced, 0.1 ng/mL TSH, Experiment 2 [1] of 151%. For the same substance, the Mutated/Wild type (%) of cyclic AMP produced, 0.3 ng/mL TSH, Experiment 1 [1] was 106%, the Mutated/Wild type (%) of cyclic AMP produced, 0.3 ng/mL TSH, Experiment 2 [1] was 106% and the Mutated/Wild type (%) of cyclic AMP produced, 1 ng/mL TSH, Experiment 1 [1] was 75%. For the same substance, the Mutated/Wild type (%) of cyclic AMP produced, 1 ng/mL TSH, Experiment 2 [1] was 82%, the Mutated/Wild type (%) of cyclic AMP produced, 3 ng/mL TSH, Experiment 1 [1] was 80% and the Mutated/Wild type (%) of cyclic AMP produced, 3 ng/mL TSH, Experiment 2 [1] was 103%. It also gave a % inhibition of TSH stimulation; TSH (2); Experiment 1 [2] of 0%, a % inhibition of TSH stimulation; TSH (2); Experiment 2 [2] of 1% and a Cyclic AMP produced; TSH 3 ng/mL; Experiment 1 [2] of 78.5 pmol/mL. For the same substance, the Cyclic AMP produced; TSH 3 ng/mL; Experiment 2 [2] was 96.8 pmol/mL, the Cyclic AMP produced; TSH (2); Experiment 1 [2] was 85.2 pmol/mL and the Cyclic AMP produced; TSH (2); Experiment 2 [2] was 95.8 pmol/mL. The Mutated/wild type (%) of cyclic AMP produced; TSH 3 ng/mL; Experiment 1 [2] was 114%, the Mutated/wild type (%) of cyclic AMP produced; TSH 3 ng/mL; Experiment 2 [2] was 99% and the Mutated/wild type (%) of cyclic AMP produced; TSH (2); Experiment 1 [2] was 115%. For the same substance, the Mutated/wild type (%) of cyclic AMP produced; TSH (2); Experiment 2 [2] was 94%, the % inhibition of TSH stimulation; TSH (2), run at the end of assay [3] was 10% and the Cyclic AMP produced (pmol/mL), TSH 0.01 ng/mL, Experiment 1 [3] was 2.58 pmol/mL. It also gave a Cyclic AMP produced (pmol/mL), TSH 0.01 ng/mL, Experiment 2 [3] of 4.28 pmol/mL, a Cyclic AMP produced (pmol/mL), TSH 0.03 ng/mL, Experiment 1 [3] of 3.2 pmol/mL and a Cyclic AMP produced (pmol/mL), TSH 0.03 ng/mL, Experiment 2 [3] of 5.71 pmol/mL. For the same substance, the Cyclic AMP produced (pmol/mL), TSH 0.1 ng/mL, Experiment 1 [3] was 3.64 pmol/mL, the Cyclic AMP produced (pmol/mL), TSH 0.1 ng/mL, Experiment 2 [3] was 9.8 pmol/mL and the Cyclic AMP produced (pmol/mL), TSH 0.3 ng/mL, Experiment 1 [3] was 5.38 pmol/mL. For the same substance, the Cyclic AMP produced (pmol/mL), TSH 0.3 ng/mL, Experiment 2 [3] was 35.7 pmol/mL, the Cyclic AMP produced (pmol/mL), TSH 1 ng/mL, Experiment 1 [3] was 15.8 pmol/mL and the Cyclic AMP produced (pmol/mL), TSH 1 ng/mL, Experiment 2 [3] was 57.1 pmol/mL. For the same substance, the Cyclic AMP produced (pmol/mL), TSH 3 ng/mL, Experiment 1 [3] was 34.5 pmol/mL, the Cyclic AMP produced (pmol/mL), TSH 3 ng/mL, Experiment 2 [3] was 58.5 pmol/mL and the Cyclic AMP produced; TSH 3 ng/mL alone [3] was 63.7 pmol/mL. It also gave a Cyclic AMP produced; TSH (2) 3 ng/mL, run at the end of assay [3] of 57 pmol/mL, a Mutated/Wild type (%), TSH 0.01 ng/mL, Experiment 1 [3] of 188% and a Mutated/Wild type (%), TSH 0.01 ng/mL, Experiment 2 [3] of 204%. The Mutated/Wild type (%), TSH 0.03 ng/mL, Experiment 1 [3] was 203%, the Mutated/Wild type (%), TSH 0.03 ng/mL, Experiment 2 [3] was 127% and the Mutated/Wild type (%), TSH 0.1 ng/mL, Experiment 1 [3] was 199%. The Mutated/Wild type (%), TSH 0.1 ng/mL, Experiment 2 [3] was 95%, the Mutated/Wild type (%), TSH 0.3 ng/mL, Experiment 1 [3] was 168% and the Mutated/Wild type (%), TSH 0.3 ng/mL, Experiment 2 [3] was 100%. It also gave a Mutated/Wild type (%), TSH 1 ng/mL, Experiment 1 [3] of 99%, a Mutated/Wild type (%), TSH 1 ng/mL, Experiment 2 [3] of 79% and a Mutated/Wild type (%), TSH 3 ng/mL, Experiment 1 [3] of 72%. It also gave a Mutated/Wild type (%), TSH 3 ng/mL, Experiment 2 [3] of 74%, a Mutated/wild type (%) of cyclic AMP produced; TSH 3 ng/mL alone [3] of 76% and a Mutated/wild type (%) of cyclic AMP produced; TSH (2) 3 ng/mL, run at the end of assay [3] of 68%. The % inhibition of TSH stimulation, TSH (2) run at the end of assay, mutated TSHR [4] was 22%, the Cyclic AMP produced (pmol/mL), TSH 3 ng/mL, mutated TSHR [4] was 52.5 pmol/mL and the Cyclic AMP produced (pmol/mL), TSH (2) 3 ng/mL run at the end of assay, mutated TSHR [4] was 41 pmol/mL. It also gave a Mutated/wild type (%) of cyclic AMP produced; TSH 3 ng/mL [4] of 52%, a Mutated/wild type (%) of cyclic AMP produced; TSH (2) 3 ng/mL, run at the end of assay [4] of 31.2% and a % inhibition of TSH stimulation; TSH (2), run at the end of assay [5] of 0%. The % inhibition of TSH stimulation; TSH (2), run at the end of assay; Experiment 1 [5] was 8%, the % inhibition of TSH stimulation; TSH (2), run at the end of assay; Experiment 2 [5] was 0% and the Cyclic AMP produced (pmol/mL), TSH 0.01 ng/mL [5] was 2.45 pmol/mL. It also gave a Cyclic AMP produced (pmol/mL), TSH 0.01 ng/mL, Experiment 1 [5] of 1.86 pmol/mL.
